{"source": "patent US20030143210A1", "about": "(Biogen, published 2003)", "target": "T1, lymphotoxin-β (human, UniProt Q06643 4-244, N-linked oligosaccharide (about 3 kD lost on N-glycanase treatment))", "T1 construct": "Type II membrane protein; In the reimmunoprecipitation tests the protein had been eluted from SDS-PAGE gel slices; also called LT-β; LT-B", "T1 sequence": "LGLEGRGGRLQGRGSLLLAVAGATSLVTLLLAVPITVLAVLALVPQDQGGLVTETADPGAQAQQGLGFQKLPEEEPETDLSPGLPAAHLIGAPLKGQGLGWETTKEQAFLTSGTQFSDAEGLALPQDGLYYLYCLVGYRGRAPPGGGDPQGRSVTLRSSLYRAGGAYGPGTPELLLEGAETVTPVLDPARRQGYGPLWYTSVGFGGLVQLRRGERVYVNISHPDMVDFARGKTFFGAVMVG", "experiment": "co-immunoprecipitation, then reimmunoprecipitation of separated bands from 35S-Met labeled II-23.D7 cells", "method": "Reimmunoprecipitation of SDS-PAGE-separated antigens was carried out by excising labeled bands from gels, rehydrating them for 10 minutes in TBS, 0.2% SDS, and then dicing the gel slices into small pieces. The proteins were eluted by incubation in 1 ml TBS, 0.2% SDS for 8 hours at room temperature, with rotation. After elution the gel pieces were removed by centrifugation, and NP-40 was added to the supernatant to a final concentration of 2%. The eluted proteins were then immunoprecipitated as above, and reanalyzed by SDS-PAGE.", "data": [{"binder": "lymphotoxin-α (ligand, human, UniProt P01374 35-205, looked up, N-linked oligosaccharide, mature; also called LT-α; LT) LPGVGLTPSAAQTARQHPKMHLAHSTLKPAAHLIGDPSKQNSLLWRANTDRAFLQDGFSLSNNSLLVPTSGIYFVYSQVVFSGKAYSPKATSSPLYLAHEVQLFSSQYPFHVPLLSSQKMVYPGLQEPWLHSMYHGAAFQLTQGDQLSTHTDGIPHLVLSPSTVFFGAFAL", "values": [{"measurement": "binding result", "result": "binds"}]}]}
